Measurements: article PMC6266874

Legend:
Assay in all cases: GST-WRKY pull-down of BIK1-HA from leaf extract
Settings in all cases: reference: wild type BIK1; sites S89,T90
WRKY50 = WRKY50 (UniProt Q8VWQ5)
WRKY57 = WRKY57 (UniProt Q9C983)
WRKY33 = WRKY33 (UniProt Q8S8P5)

- binding against the reference (WRKY50): stronger
- binding against the reference (WRKY57): stronger
- binding against the reference (WRKY33): stronger
Substance: BIK1 (Botrytis-induced kinase 1) (from UniProt O48814) S89A/T90A
